Test results reported in the RNAGym collection of RNA variant scans (doi:10.7554/elife.80360).

B1: Hairpin Ribozyme (parent)
chain: GUCCUCUUUCACGUGCGCGUGAAAGAGAGAAGUGAACCAGAGAAACACACGUUGUGGUAUAUUACCUGGUA

Variants of: B1
Assay: self-cleavage, relative activity (ratio to wild type); higher = more cleavage; co-transcriptional

| Variant | self-cleavage |
| --- | --- |
| A26G U53G | 0.682 |
| A26G U55C | 0.206 |
| A26G U55G | 0.153 |
| A26G U58A | 0.755 |
| A26G U58G | 0.693 |
| A26G U60G | 0.717 |
| A26G U63G | 0.183 |
| A26G U70A | 1.06 |
| A26G U70G | 0.81 |
| A26U | 0.683 |
| A26U A28C | 0.155 |
| A26U A28U | 0.257 |
| A26U A30U | 0.11 |
| A26U A35C | 0.846 |
| A26U A35U | 0.302 |
| A26U A36C | 0.343 |
| A26U A36U | 0.414 |
| A26U A39C | 0.225 |
| A26U A39G | 0.207 |
| A26U A41C | 0.776 |
| A26U A44C | 0.0769 |
| A26U A44G | 0.288 |
| A26U A44U | 0.141 |
| A26U A45G | 0.168 |

| Variant | self-cleavage |
| --- | --- |
| A26U A45U | 0.245 |
| A26U A47U | 0.0699 |
| A26U A49G | 0.41 |
| A26U A49U | 0.0963 |
| A26U A59G | 0.181 |
| A26U A64C | 0.15 |
| A26U A71G | 0.781 |
| A26U C37A | 0.243 |
| A26U C37G | 0.185 |
| A26U C38G | 0.109 |
| A26U C38U | 0.409 |
| A26U C46G | 0.317 |
| A26U C48G | 0.117 |
| A26U C50U | 0.261 |
| A26U C65A | 0.701 |
| A26U C65U | 0.161 |
| A26U C66A | 0.146 |
| A26U C66U | 0.276 |
| A26U G27C | 0.177 |
| A26U G32U | 0.202 |
| A26U G40C | 0.0803 |
| A26U G51A | 0.661 |
| A26U G51C | 0.447 |
| A26U G51U | 0.614 |

| Variant | self-cleavage |
| --- | --- |
| A26U G54C | 0.305 |
| A26U G57A | 0.184 |
| A26U G57C | 0.123 |
| A26U G69A | 0.203 |
| A26U U33A | 0.148 |
| A26U U33C | 0.141 |
| A26U U52G | 0.442 |
| A26U U53G | 0.489 |
| A26U U55C | 0.23 |
| A26U U55G | 0.281 |
| A26U U58G | 0.631 |
| A26U U60A | 0.328 |
| A26U U62G | 0.141 |
| A26U U63A | 0.127 |
| A26U U67C | 0.176 |
| G27A A28U | 0.393 |
| G27A A30C | 0.141 |
| G27A A30G | 0.0562 |
| G27A A31G | 0.221 |
| G27A A31U | 0.153 |
| G27A A39C | 0.2 |
| G27A A43U | 0.052 |
| G27A A44C | 0.143 |
| G27A A44U | 0.139 |

| Variant | self-cleavage |
| --- | --- |
| G27A A47C | 0.214 |
| G27A A49C | 0.154 |
| G27A A49G | 0.237 |
| G27A A49U | 0.112 |
| G27A A61U | 0.155 |
| G27A A64U | 0.174 |
| G27A A71G | 0.545 |
| G27A C37G | 0.15 |
| G27A C38U | 0.2 |
| G27A C48A | 0.178 |
| G27A C48U | 0.183 |
| G27A C50U | 0.124 |
| G27A C65A | 0.396 |
| G27A C65U | 0.145 |
| G27A C66A | 0.204 |
| G27A G29U | 0.126 |
| G27A G32A | 0.0917 |
| G27A G32C | 0.226 |
| G27A G34C | 0.945 |
| G27A G34U | 1.3 |
| G27A G40C | 0.104 |
| G27A G42C | 0.145 |
| G27A G51A | 0.337 |
| G27A G51U | 0.458 |

| Variant | self-cleavage |
| --- | --- |
| G27A G54C | 0.105 |
| G27A G57C | 0.184 |
| G27A G68C | 0.215 |
| G27A G68U | 0.184 |
| G27A G69C | 0.198 |
| G27A U52C | 0.477 |
| G27A U52G | 0.431 |
| G27A U53C | 0.64 |
| G27A U53G | 0.518 |
| G27A U58A | 0.176 |
| G27A U60C | 0.657 |
| G27A U62A | 0.155 |
| G27A U67C | 0.141 |
| G27A U70G | 0.227 |
| G27C A30G | 0.172 |
| G27C A39G | 0.0932 |
| G27C A41C | 0.228 |
| G27C A41U | 0.367 |
| G27C A44G | 0.21 |
| G27C A44U | 0.0991 |
| G27C A45G | 0.19 |
| G27C A45U | 0.202 |
| G27C A47G | 0.125 |
| G27C A59U | 0.16 |

| Variant | self-cleavage |
| --- | --- |
| G27C A61U | 0.119 |
| G27C A71C | 0.53 |
| G27C C38A | 0.116 |
| G27C C46A | 0.0983 |
| G27C C46G | 0.152 |
| G27C C65U | 0.159 |
| G27C G32U | 0.15 |
| G27C G40U | 0.0774 |
| G27C G42A | 0.148 |
| G27C G42C | 0.165 |
| G27C G54A | 0.133 |
| G27C G56C | 0.134 |
| G27C G69A | 0.0883 |
| G27C U53A | 0.19 |
| G27C U53G | 0.169 |
| G27C U55C | 0.186 |
| G27C U58C | 0.214 |
| G27C U60A | 0.177 |
| G27C U62A | 0.205 |
| G27C U63A | 0.174 |
| G27C U63C | 0.222 |
| G27C U67C | 0.103 |
| G27C U70A | 0.319 |
| G27C U70C | 0.132 |

| Variant | self-cleavage |
| --- | --- |
| G27U A28G | 0.119 |
| G27U A30C | 0.1 |
| G27U A35G | 0.228 |
| G27U A39C | 0.107 |
| G27U A39U | 0.144 |
| G27U A41G | 0.305 |
| G27U A41U | 0.554 |
| G27U A43U | 0.106 |
| G27U A44C | 0.0839 |
| G27U A44G | 0.193 |
| G27U A45C | 0.0886 |
| G27U A45G | 0.131 |
| G27U A45U | 0.0868 |
| G27U A49U | 0.141 |
| G27U A64C | 0.173 |
| G27U A64U | 0.129 |
| G27U A71G | 0.261 |
| G27U A71U | 0.166 |
| G27U C46U | 0.12 |
| G27U C48G | 0.137 |
| G27U C66G | 0.126 |
| G27U C66U | 0.288 |
| G27U G51C | 0.158 |
